Results from the supplement of paper PMC12042874.
± gives the uncertainty stated by the source.

assay: amyloid nucleation score (Sup35N fusion, yeast selection) (log enrichment); library NNK2; higher = more nucleation; inactive = no reads after selection
Outline: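 Three technical output replicates were used for random libraries. Psi-negative yeast expressing peptides of 20 random codons fused to Sup35N were induced with 100 μM copper sulfate for 24 hours and grown 7 days at 30°C on medium lacking adenine and uracil, and input and output plasmid inserts were Illumina-sequenced, excluding sequences with under 100 input reads. The nucleation score is the DiMSum log enrichment of output over input reads, centred on the mode score of non-aggregating sequences.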

Row | Substance | amyloid nucleation score
1 | IRKIMVF | inactive
2 | VKVQKINGGCVGFDLTWLCN | 8.863 ± 0.034
3 | VTYDCL | inactive
4 | SHRMTSNNTNSNLLGRKTGS | -0.139 ± 0.19
5 | CWSTQDHLNCVID | inactive
6 | RDNRSLTELLNRTMVHFVIM | inactive
7 | CTMLLGSESEGWSLQIFVLL | 0.05 ± 0.62
8 | MLLYNESNANQLKRGSGRWL | 0.156 ± 0.32
9 | RGNMESLWQNRKGRCSLNHG | inactive
10 | MDLVSSFRLNVCGT | 0.089 ± 0.5
11 | WGCSHKLTCVGARHLVLD | 2.46 ± 0.17
12 | RAYCAYTLR | 5.94 ± 0.071
13 | AWVWFS | -0.845 ± 1.1
14 | FPYIFIWFYGSVGLWRRETL | 0.127 ± 0.79
15 | IIGASCTNNSRMVLVWATVF | -0.76 ± 1
16 | GLWLRFVCSIYFLMYIVHIN | inactive
17 | SKLTRSIENLLF | 0.949 ± 0.15
18 | ICISWPINLCMV | 2.6 ± 0.22
19 | MFKQFVSLLHQGLFLSLSFD | -0.01 ± 0.6
20 | TDHMHKISRVHRDKKMSVGF | -0.707 ± 1.1
21 | MYTLYS | inactive
22 | DTGRFVMLVVGR | 0.304 ± 0.54
23 | NRNLSYHT | 0.633 ± 0.8
24 | PCIWGDVVL | 0.506 ± 0.41
25 | TFNLKPRFLFV | 5.18 ± 0.087

Row | Substance | amyloid nucleation score
26 | SERRGIIGSGLRDGRVLFTT | inactive
27 | VVVDGSLRVNLVSQGDPNNV | 1.07 ± 0.25
28 | VTPTFCETLVKPLHALHTNC | -1.22 ± 0.62
29 | AIRVLCKEYSQSDRMNEWLN | inactive
30 | NIAWTVDRYRKGSARGV | 1.17 ± 0.23
31 | RIMIIGKYVSRMVFGDSFWG | 6.002 ± 0.049
32 | VSLSERLTHLLCIRF | 0.343 ± 0.64
33 | RRPKHYMAVMSESVGLQCRL | 0.173 ± 0.37
34 | GCVTSGMLMTLIIH | -0.218 ± 0.48
35 | SYVDNWNISRVYLRLTYSVY | -0.96 ± 0.49
36 | NYLSLVGRFNMGWGESNGRR | 5.888 ± 0.058
37 | PAFMSV | -1.05 ± 0.36
38 | PQLSKVLGWNYRCVNLSIW | 4.93 ± 0.086
39 | CTSCLGKRFSCLTINAGLSW | -0.916 ± 0.56
40 | FFEMFGCHMFLLMAYLTI | 0.164 ± 0.63
41 | LSLYIGFYMKGGSCRC | 0.007 ± 0.79
42 | INVYRPFYIVRHY | 5.101 ± 0.044
43 | HYRDPFVKRLMKPVGRPATL | 0.192 ± 0.55
44 | QDNRYPLFVLSTLLSLIFLL | inactive
45 | GKYMEDYNAENQNPSTMMES | -0.01 ± 0.47
46 | PVYPAAYWIVSDGGCNVSWE | -0.789 ± 0.37
47 | SELKMWYTDMVSTSKLDCIL | -0.125 ± 0.46
48 | FMTSWTVYSSRAYLHENVGT | 1.08 ± 0.37
49 | DISVYSDFVLSFICADVHPS | 5.02 ± 0.04
50 | FGCSVNRKILVLMFVNVISV | -0.627 ± 0.39

Row | Substance | amyloid nucleation score
51 | SSREYEEGMAGTGGLELLSL | 1.16 ± 0.44
52 | PGDGTFLMFLACGCFRPFCG | -0.181 ± 0.49
53 | ILWDRISFNMLRLTRCRFFF | -0.632 ± 1.1
54 | LGHHIVFAVTPKWTYDDDIK | 0.679 ± 0.62
55 | LYSDGVIDMRRLCKVL | -0.841 ± 0.62
56 | SCSMLVRDDIIIEPDCLLGV | 0.45 ± 0.74
57 | FIRYS | 1.79 ± 0.084
58 | TYDYMKRDIMFTWLKRERKA | 1.04 ± 0.33
59 | YELNSLMKMSYAEQFPKTWA | 0.447 ± 0.46
60 | RHLISSLRELHTTLNLHRPE | 0.101 ± 0.76
61 | TCCQDYLLIWYCMDSIRNVR | 9.611 ± 0.034
62 | LWMDWS | 0.754 ± 0.36
63 | SKFLM | -1.14 ± 0.48
64 | PASTREDGWFYCAHSVVSSQ | 0.346 ± 0.54
65 | QARLLSYLGDLVLASSWKVL | -0.891 ± 0.64
66 | NHRAIYF | 0.205 ± 0.77
67 | FSFLGDPKNERTVSWVMGHR | 0.478 ± 0.32
68 | QKACWNPGQRLLVTDLHYQP | 0.27 ± 0.64
69 | LRLSSGLKSVRTRRRM | 0.904 ± 0.37
70 | SRFRGKLCFGWHKYAFGEVF | -0.711 ± 0.79
71 | IDYVFAAGDKWWVSVLL | -0.412 ± 1.1
72 | SSWLEVAMTALRSIWYMD | 0.103 ± 0.26
73 | SVIEISECLERVVRWHRVAG | 1.76 ± 0.33
74 | RRVTRKVVGPRNYAYEKYFW | 3.28 ± 0.06
75 | LAPCISNMSRLL | -1.25 ± 0.36

Row | Substance | amyloid nucleation score
76 | LFVLDNMDDIWNSIISWVGR | -0.295 ± 0.65
77 | TLCVAIMYMHLGYAL | 0.178 ± 0.5
78 | VYQYICFRVYGVVHWVGSSA | 1.4 ± 0.28
79 | IWMRVVC | 0.337 ± 0.8
80 | RGWLRFMEQNGTYSEYDVDL | 12.82 ± 0.022
81 | SVTYWGWPTILAVRKCLFNS | 2.5 ± 0.091
82 | LKNRILPFSNHELIVAGLGL | -0.388 ± 1
83 | TCLSQQCTEIEWIKFTPMSR | 4.31 ± 0.056
84 | LFISVSYSEFVFQIQDALRC | 1.48 ± 0.12
85 | KVIMVLFRFDMSIWGWQTDI | -0.628 ± 0.76
86 | VVMHQSAVCYEHEMTLVRRF | 0.027 ± 1
87 | GNVFEHIQSMIRDSFEEHSG | 0.889 ± 0.2
88 | LTNCRIVLSLNQARVRIESI | 0.218 ± 0.8
89 | TDLECKQLG | 1.88 ± 0.11
90 | FLFEN | -0.607 ± 0.64
91 | IHLHYNVDNCTFELLK | -0.499 ± 0.26
92 | NFEFFYRRNHT | inactive
93 | LLSISCV | 0.512 ± 0.34
94 | IFGSLLNMIYMV | 2.5 ± 0.21
95 | LQYAKSHRVSWDGMAANSPG | 0.067 ± 0.45
96 | SVNAIRTQGLRSRMQFMKTG | -0.394 ± 1.1
97 | RSVSTTHRCRTTLKTSNYCL | 0.778 ± 0.67
98 | LFSCFKTEWFCITRMDGLIM | 5.731 ± 0.036
99 | SISRISPTQGIIGQTRFFYV | -1.14 ± 0.76
100 | STMLWLCFFMGKLSVDTVFE | -0.6 ± 0.53

Row | Substance | amyloid nucleation score
101 | LLFMWTWVVVIGRKYANNYF | inactive
102 | SMILT | -1.11 ± 1.1
103 | LLSDLFCIFVLRKSRSGGWS | 1.04 ± 0.34
104 | RYIGMLRFVVCDYGLMIFWS | -0.394 ± 1.1
105 | LTYLFVQSSVAWLSLMIH | 0.253 ± 0.6
106 | CKHDCETWWCSY | 3.48 ± 0.058
107 | FCMFSNIYVFPSTIF | 7.583 ± 0.02
108 | FARKMIGLPLLYLLGVMFGR | -0.877 ± 0.78
109 | TKVMQGVNSMARGV | 1.08 ± 0.39
110 | YFWDQGLHPVSFRESTYDLV | -0.243 ± 1.1
111 | FLLHVCVADKVGVTSIHTCC | -0.181 ± 0.35
112 | FCNLN | -0.02 ± 0.28
113 | VCCFLLHQN | 6.88 ± 0.083
114 | KGSDSYLFIERWCLKMNISL | inactive
115 | GTGLNKHNNSC | 0.36 ± 0.19
116 | FYHRGMMWMYKWGMARYRVC | 0.044 ± 0.44
117 | VSCTWFGS | 0.797 ± 0.28
118 | LTVLFLYLSLRCHSYNPAHA | -0.841 ± 1.1
119 | PMMSIAMCVSSTPLRYFRVR | 2 ± 0.12
120 | RVLTGWVVA | 0.215 ± 0.76
121 | KAYPFYTLHVGGRDRVIPDW | inactive
122 | ELSLTCNGDQLIGMKGGADK | 0.008 ± 0.38
123 | YGIRYYICKFMLKSFICSWY | -1.33 ± 1.1
124 | KKAIFWWFWDHDSCL | inactive
125 | IFNKYLVIFSIFI | 6.747 ± 0.037

Row | Substance | amyloid nucleation score
126 | INTSNQFFGYLYLWVSRYRY | -1.03 ± 0.54
127 | GYLVRM | -0.186 ± 0.3
128 | VGGWGWGHCPQRRQHVSLPV | 0.825 ± 0.53
129 | KRLVEAVKFWWQVRNGLKVR | 0.518 ± 0.29
130 | FYVPSS | -0.158 ± 0.63
131 | FPRDILVS | -0.13 ± 0.76
132 | RQLAQQYAHAFGYIFHSLYL | 1.19 ± 0.4
133 | SSHLGTFLSDRGKSWVSGND | -0.569 ± 0.55
134 | LRSYWSGIGTTGPV | 4.57 ± 0.1
135 | EFIAISLSFVPLYRVVSGSG | -0.674 ± 0.79
136 | TGFKCSLLTY | -0.91 ± 0.62
137 | GWFKESVFLGFWVRISNSQV | -1.75 ± 1.1
138 | GKINITAFAWLKAFADRHWI | 0.705 ± 0.8
139 | GRTYNVTEFLKSRTRWGSPL | 1.19 ± 0.59
140 | YIIIYLTRHTGVRDVYVSGG | -0.79 ± 1
141 | GASSF | inactive
142 | PLRNGDGVSFLGSVLSWPQA | -0.294 ± 1.1
143 | NMCWFKPG | -0.329 ± 0.17
144 | KSPNHSDRVQWMKYTFWYTL | -0.003 ± 1.1
145 | FYFWVSDYQLGDMVNIMNLS | -0.184 ± 1.1
146 | IAAYLLNSQYDSCNVDEKRH | -0.448 ± 0.39
147 | VKYYQGIGVWSKVWIMFD | 0.7 ± 0.42
148 | SHWCIVYKGLRNVIVC | inactive
149 | PVGLY | -0.308 ± 0.42
150 | DLYSHSFNLHGYSMRVCYNE | 0.147 ± 0.65

Row | Substance | amyloid nucleation score
151 | CDTLTRRFVRCNVWFQCKR | 3.96 ± 0.056
152 | MRVDLKLVSAYLKSRFGPMF | -0.341 ± 0.79
153 | KVHNLMGESGIKLYYVRFAH | inactive
154 | KRYLTGSEVIVGWCC | 0.329 ± 0.38
155 | CNMFDCCK | 0.175 ± 0.42
156 | RYENPLYVCDWGFGASLFRP | 0.237 ± 0.22
157 | VNFVLGVL | 0.086 ± 0.19
158 | WWLSGA | 0.898 ± 0.35
159 | SVYENYRVTISLSRSSITSC | -1.1 ± 0.61
160 | NEYYAFFRLSADSASS | 0.571 ± 0.51
161 | SLVFNQAHWNRLIPTT | -1.02 ± 0.63
162 | SRFLARQLLKSASLRLFVET | -0.159 ± 0.35
163 | QRMTNMSF | -1.27 ± 1
164 | EVGVEGEIF | -0.56 ± 0.4
165 | FDYVMFSDIVWSYTKNDALM | -0.111 ± 0.63
166 | NCVTHFMFNLDWSLWFEVCF | -1.04 ± 1.1
167 | FDYKSKKGRNNDWRTVCCVM | 2.21 ± 0.16
168 | LLNVPGLVAYEIRGPMRYLF | -0.519 ± 0.44
169 | GLCKFKQVCTNSVGNYVGYF | -2.18 ± 0.62
170 | VSLGDYASAGFLMWIRLHVW | -0.03 ± 0.56
171 | RIVVYMSLCQCL | 8.609 ± 0.076
172 | GVASNGKGFNTFMCAHCY | -0.225 ± 0.41
